Test results reported in US7230094B2, “Neutral sphingomyelinase antisense ribozyme and uses thereof” (priority 2001, dated 2007).

Tests used:
Format in all cases: cell-based, human
[1] = system: N-SMase; assay: TNF-α and Fas ligand induced N-SMase activity in WT and mutant cells; details: for Basal activity of N-SMase: unstimulated CC cells, 2.7±0.1 in MG63 control cells, ±S.D., N=3
Experimental: FIGS. 4A–4B depict the effects of incubation with TNF-α (FIG. 4A) and Fas ligand (FIG. 4B) over time on the activity of N-SMase in mutant and WT cells. Confluent cultures of WT (MG-63) and mutant (CC) cells were incubated with serum free medium with or without TNF-α ([…]) or Fas ligand (1 ng/ml). At the indicated intervals, cells were harvested, centrifuged, and lysed in buffer containing 0.1% Triton™ X-100, 25 mM Tris (pH 7.4), 5 mM EDTA, 1 mM phenylmethylsulfonyl fluoride (PMSF), and 2 μg each of chymostatin, leupeptin, antipain, and pepstatin A. 100 μl of a reaction mixture containing 50 mM Tris (pH 7.4), 5 mM MgCl2, 0.05% Triton™ X-100, 5 mM dithiothreitol (DTT) and 10 nmol [^14C] sphingomyelin (100,000 cpm) was added to 5–10 μl of cell lysate (100 μg protein). The basal activity of N-SMase was 2.7±0.1 nmol/mg protein/hr in MG63 cells and 0.67±0.1 nmol/mg protein/hr in CC cells. These levels were defined as 100% activity. Error bars indicate ±S.D. (N=3).
Tumor necrosis factor alpha (TNF-α) is known to induce programmed cell death through stimulation of sphingomyelinase activity and generation of ceramide. This example describes the ability of the ribozyme directed against N-SMase to inhibit this pathway. The effects of incubation with TNF-α and Fas ligand over time on the activity of N-SMase in mutant and WT cells are shown in FIGS. 4A and 4B, respectively. Confluent cultures of WT (MG-63) and mutant (CC) cells were incubated with serum free medium with or without TNF-α ([…]) or Fas ligand (1 ng/ml), and the activity of N-SMase was determined by measuring the cleavage of [^14C]sphingomyelin. At 0, 10, 20, 30, 40, 50, and 60 minutes, cells were harvested, centrifuged, and lysed in buffer containing 0.1% Triton™ X-100, 25 mM Tris (pH 7.4), 5 mM EDTA, 1 mM phenylmethylsulfonyl fluoride (PMSF), and 2 μg each of chymostatin, leupeptin, antipain, and pepstatin A. 100 μl of a reaction mixture containing 50 mM Tris (pH 7.4), 5 mM MgCl2, 0.05% Triton™ X-100, 5 mM dithiothreitol (DTT) and 10 nmol [^14C]sphingomyelin (100,000 cpm) was added to 5–10 μl of cell lysate (100 μg protein). The basal activity of N-SMase was 2.7±0.1 nmol/mg protein/hr in MG63 cells and 0.67±0.1 nmol/mg protein/hr in CC cells. These levels were defined as 100% activity.

[2] = system: N-SMase; assay: Immunocytochemical analysis of cells, N-SMase antibody; details: clone CC compared to untransfected (WT) and sham-transfected (LacZ) lines
Experimental: (§1) Wild-type (WT) MG-63 cells and MG-63 cells transfected with LacZ constructs (L-3) and ribozyme expression constructs for the inhibition of N-SMase expression (CC) were analyzed by immunocytochemistry. The antibodies either recognized epitopes in fibronectin (control) or N-SMase. The analysis was performed in duplicates for the MG-63 cell line and the two mutant colonies.

[3] = system: A-SMase; assay: Acid sphingomyelinase activity in cell extracts, [14C]sphingomyelin substrate; details: for Acid SMase activity: MG-63 WT 2.7, L-3 LacZ/sham 2.3, average of two batches; for Reduction in A-SMase activity: ribozyme-transfected cells compared to sham-transfected and untransfected controls
Experimental: Confluent culture of cells were harvested, washed, and pellets lysed in buffer containing 0.1% Triton™ X-100, 25 mM Tris (pH 7.4) buffer, 5 mM EDTA, 1 mM phenylmethylsulfonylfluoride and 2 μg each of chymostatin, leupeptin, antipain, and pepstatin A. The activity levels of acid and neutral sphingomyelinase were measured in cell extracts (100 μg protein) in duplicate as described previously employing […] as the substrate.
Activities of A-SMase and N-SMase were also measured according to methods described in Chatterjee, S. and Ghosh, N. (1996) Glycobiology 6:303–311, incorporated herein by reference, with minor modifications. In brief, 5×10^6 MG63 cells were scraped from the culture plates, washed with PBS, and disrupted by repeated passage through a 25-gauge needle. Nuclei and cell debris were pelleted at 800×g for 5 min. Supernatant fluid was collected, and the protein concentration was measured using the Bio-Rad (Hercules, Calif.) protein detection kit. To measure SMase activity, 50 μg of protein was incubated for 90 min (the reaction was linear for up to 120 min) at 37° C. in buffer (200 μl final volume) containing 250 mM sodium acetate and 1 mM EDTA, pH 5.0, for A-SMase or 250 mM Tris-Cl, pH 7.4, with or without 6 mM MgCl2 for N-SMase, and 0.75 μl of [methyl-^14C]sphingomyelin (SM) (0.2 mCi/ml; 56.6 mCi/mmol). Radioactive phosphocholine produced from [^14C]SM was extracted with 800 μl of chloroform-methanol (2:1, vol/vol) and 100 μl of H2O. [^14C]phosphocholine in the aqueous phase was measured by scintillation counting.

[4] = system: ceramide production by N-SMase; assay: Ceramide level, modified diacylglycerol kinase assay; details: for Production of ceramide in response to cytokine stimulation: ribozyme-transfected (N-SMase-deficient) cells compared to sham transfected cells, TNF-α 20 ng/ml or Fas-L 1 ng/ml, 24 hours
[5] = system: N-SMase; assay: N-SMase activity gel analysis of partially purified preparations; details: CC mutant cells compared to control cells, FIG. 2
Experimental: FIG. 2 depicts N-SMase activity in mutant and WT cells, as determined using gel analysis. Partially purified preparations of the MG-63 (WT) cell line and the mutant cell line CC were subjected to 7.5% polyacrylamide gel electrophoresis at 4° C. employing sodium lauryl sarcosine as the detergent. The gel was calibrated with pre-stained protein molecular weight standards (phosphorylase B, bovine serum albumin (BSA), and ovalbumin). Gel slices were excised and subjected to an N-SMase assay employing […] as the substrate.
N-SMase activity in mutant and WT cells (subjected to detergent extraction as described above), was determined using gel analysis. Partially purified preparations of the MG-63 (WT) cell line and the mutant cell line CC were subjected to 7.5% polyacrylamide gel electrophoresis at 4° C. employing sodium lauryl sarcosine as the detergent. The gel was calibrated with pre-stained protein molecular weight standards (phosphorylase B, bovine serum albumin (BSA), and ovalbumin; Bio-Rad). Gel slices were excised, transferred to glass tubes, and subjected to an N-SMase assay at pH 7.4 employing […] as the substrate.

[6] = system: fibronectin; assay: Immunocytochemical analysis of cells, fibronectin antibody (specificity control); details: lines harboring pU1/N-SMase vs pZeoSVLacZ vs untransfected cells
Experimental: as §1

B1: N-SMase ribozyme: U1 snRNA-derived hammerhead antisense ribozyme targeting N-SMase mRNA, expressed from vector pNSMRz; stably transfected MG63 clones CC and C-B (nucleic acid, listed as Homo sapiens)
chain: AUACUUACCUGGCAGGGGAGAUACCAUGAUCACGAAGGUGGUUUUCCCAGGGCGAGGCUUAUCCAUUGGCCUCCGGAUGUGCUGACCCCUGCGAUUUCCCCAAAUGUGGGAAACUCGACUGCAGAAUAUGUCAUCAUAUUGCCUGAUGAGUCCGUGAGGACGAAACCUCUUCACAUGAAAAAGUGGGGCUGCGUUCGCGCUUCCCCG
- N-SMase activity under cytokine stimulation ([1]; ribozyme cells stimulated with TNF-α and Fas-L, sham-transfected cells 4.0): 0.75 nmol/mg protein/hr
- Change of N-SMase activity after addition of TNF-α ([1]; ribozyme transfected cells, 0-60 min, FIG. 4A): no significant difference
- Basal activity of N-SMase [1]: 0.67±0.1 nmol/mg protein/hr
- Basal activity of N-SMase ([1]; listed as antisense ribozyme): 0.67 nmol/mg protein/hr
- Immunohistochemical staining for N-SMase [2]: near absence
- Acid SMase activity ([3]; MG-63 clone C-B (mutant)): 2.2 nmol/mg protein/hr
- Acid SMase activity ([3]; MG-63 clone CC (mutant)): 2.1 nmol/mg protein/hr
- Reduction in A-SMase activity [3]: unchanged
- Reduction in A-SMase activity ([3]; listed as ribozyme): no discernable reduction
- Production of ceramide in response to cytokine stimulation ([4]; listed as antisense ribozyme): substantially no change
- Production of ceramide in response to cytokine stimulation ([4]; listed as ribozyme): severely reduced
- Basal level of ceramide production ([4]; ribozyme-transfected CC cells, 2.63 in MG-63 control cells): 4.59 pmole/mg protein
- Level of N-SMase activity in gel slices [5]: greatly reduced
- Immunohistochemical staining with monoclonal antibody to fibronectin [6]: No differences were observed
